Molecular target: T1, 人胰高血糖素受体 (human glucagon receptor) (human, UniProt P47871 26-477)
T1 construct: Overexpressed on stably transfected CHO-DHFR- cells; also called hGCGR; GCGR
Assay: flow cytometry, hybridoma supernatant on CHO-DHFR-hGCGR cells

T1 sequence (P47871 26-477 limits assumed): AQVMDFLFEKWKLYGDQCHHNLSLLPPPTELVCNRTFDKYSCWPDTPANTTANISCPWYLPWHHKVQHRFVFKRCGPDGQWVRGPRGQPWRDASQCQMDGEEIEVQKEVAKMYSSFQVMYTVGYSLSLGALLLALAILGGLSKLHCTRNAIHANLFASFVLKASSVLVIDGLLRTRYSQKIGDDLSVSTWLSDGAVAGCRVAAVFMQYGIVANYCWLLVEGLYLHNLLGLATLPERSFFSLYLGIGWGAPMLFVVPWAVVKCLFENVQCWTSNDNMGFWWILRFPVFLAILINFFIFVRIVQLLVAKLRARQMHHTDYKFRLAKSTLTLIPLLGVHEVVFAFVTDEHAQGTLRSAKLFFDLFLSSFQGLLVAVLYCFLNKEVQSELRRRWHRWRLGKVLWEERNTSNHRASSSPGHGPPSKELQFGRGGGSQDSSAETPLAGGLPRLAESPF

binding result	Binder
binds	单克隆抗体A-3 (antibody, V domains shown, Mouse monoclonal antibody; Tested as hybridoma supernatant (FACS) and as purified antibody / antibody supernatant (cAMP assay); also called L3H3) VH: EVKLVESGGGLVQPGGSRKLSCAASGFPFSDYGLAWFRQAPGKGPEWVAFISNLAYSTYYADTVTGRFTISRENAKNTLFLEMSSLRSEDTAMYYCARDRGLFDYWGQGTTLTVSS VL: DVVMTQIPLSLPVSLGDQASISCRSSQSLVHSNGNTYLHWYLQKPGQSPKLLIYKVSNRFSGVPDRFSGSGSGTDFTLKISRVEAEDLGVYFCSQSTHVPPYTFGGGTKLEIKR
binds	单克隆抗体A-2 (antibody, V domains shown, Mouse monoclonal antibody; Tested as hybridoma supernatant (FACS) and as purified antibody / antibody supernatant (cAMP assay); also called L2H2) VH: QIQLVQSGPELKKPGETVKISCKASGYTFTNYGMNWVKQAPGKGLKWMGWINTYNGEPTYADDFKGRCAFFLETSASTAYLQLNNLKNEDTATYFCTREYYISNYGAMDYWGQGTSVTVSS VL: DIQMTQTTSSLSASLGDRVTISCRASQDISNYLNWYQQKPDGTVKLLIYYTSRLHSGVPSRFSGSGSGADYSLTIANLDQEDIATYFCQQGILFPLTFGAGTKLELK
binds	单克隆抗体A-1 (antibody, V domains shown, Mouse monoclonal antibody; Tested as hybridoma supernatant (FACS) and as purified antibody / antibody supernatant (cAMP assay); also called L1H1) VH: QIQLVQSGPELKKPGETVKISCKASGYTFTNYGMNWVKQAPGKGLKWMGWINTNTGEPTYVEEFKGRFAFSLETSDSTAYLQINNLKNEDTATYFCANLYWGQGTTLTVSS VL: DVLMTQTPLSLPVSLGDQASISCRSSQNILHSNGNTYLEWYLQKPGQSPKLLIFKVSNRFSGVPDRFSGSGSGTDFTLKISRVEAEDLGVYYCFQGSHVPWTFGGGTKLEIK

From CN104231083A (GMAX BIOPHARM CO LTD, dated 2014)
